Substitutions are numbered along the chain they refer to.
B1: GST-OspC_(B31-ECM)^- (natural protein, B. burgdorferi strain B31-A3, UniProt Q07337 19-210, looked up)
chain: CNNSGKDGNTSANSADESVKGPNLTEISKKITDSNAVLLAVKEVEALLSSIDEIAAKAIGKKIHQNNGLDTENNHNGSLLAGAYAISTLIKQKLDGLMNEGLMEMIDAAMMCSETFTNKLKEKHTDLGKEGVTDADAKEAILKTNGTKTKGAEELGKLFESVEVLSKAAKEMLANSVKELTSPVVAESPKKP
notes: Cloned into pGEX4T2 at BamHI and SalI; also called OspCECM^-; source: E. coli BL21(DE3), purified by glutathione chromatography
B2: GST-OspC_(VS461) (natural protein, B. afzelii strain VS461, UniProt Q0SL36 19-212, looked up)
chain: CNNSGKGGDSASTNPADESAKGPNLTEISKKITDSNAFVLAVKEVETLVLSIDELAKKAIGQKIDNNNGLAALNNQNGSLLAGAYAISTLITEKLSKLKNLEELKTEIAKAKKCSEEFTNKLKSGHADLGKQDATDDHAKAAILKTHATTDKGAKEFKDLFESVEGLLKAAQVALTNSVKELTSPVVAESPKKP
notes: Cloned into pGEX4T2 at BamHI and SalI; source: E. coli BL21(DE3), purified by glutathione chromatography
B3: OspC_(VS461), untagged (natural protein, B. afzelii strain VS461, UniProt Q0SL36 19-212, looked up)
chain: B2 chain
notes: OspC (outer surface protein C) of B. afzelii strain VS461, without GST tag; Probably the GST fusion with the tag removed
B4: GST-OspCB31 (natural protein)
chain: B1 chain with M98K, M103K, M105K, M110K, M111K
notes: Cloned into pGEX4T2 at BamHI and SalI; also called wild type OspCB31; source: E. coli BL21(DE3), purified by glutathione chromatography
B5: OspCB31, untagged (natural protein, B. burgdorferi strain B31-A3, UniProt Q07337 19-210, looked up)
chain: B1 chain with M98K, M103K, M105K, M110K, M111K
notes: OspC (outer surface protein C) of B. burgdorferi strain B31-A3, without GST tag; Probably the GST fusion with the tag removed

Experiments:
[1] = target: T1, fibronectin (UniProt P02751 32-2477); experiment: ELISA; wells coated with 10 μg/ml purified fibronectin in 0.05 M Na2CO3 pH 9.0; 0.03125-2 μM GST or GST-tagged OspC variants, 1 hr at ambient temperature; goat anti-GST and HRP-conjugated anti-goat IgG; estimated KD from a fit of OD405; details: both partners purified
[2] = target: T1, fibronectin; experiment: SPR; Biacore 3000; fibronectin on a CM5 chip; 0-500 nM untagged OspC variants injected at 10 μl/min, 25°C; 1:1 Langmuir model; KD from the average koff divided by kon of each run; details: both partners purified

T1 sequence (P02751 32-2477): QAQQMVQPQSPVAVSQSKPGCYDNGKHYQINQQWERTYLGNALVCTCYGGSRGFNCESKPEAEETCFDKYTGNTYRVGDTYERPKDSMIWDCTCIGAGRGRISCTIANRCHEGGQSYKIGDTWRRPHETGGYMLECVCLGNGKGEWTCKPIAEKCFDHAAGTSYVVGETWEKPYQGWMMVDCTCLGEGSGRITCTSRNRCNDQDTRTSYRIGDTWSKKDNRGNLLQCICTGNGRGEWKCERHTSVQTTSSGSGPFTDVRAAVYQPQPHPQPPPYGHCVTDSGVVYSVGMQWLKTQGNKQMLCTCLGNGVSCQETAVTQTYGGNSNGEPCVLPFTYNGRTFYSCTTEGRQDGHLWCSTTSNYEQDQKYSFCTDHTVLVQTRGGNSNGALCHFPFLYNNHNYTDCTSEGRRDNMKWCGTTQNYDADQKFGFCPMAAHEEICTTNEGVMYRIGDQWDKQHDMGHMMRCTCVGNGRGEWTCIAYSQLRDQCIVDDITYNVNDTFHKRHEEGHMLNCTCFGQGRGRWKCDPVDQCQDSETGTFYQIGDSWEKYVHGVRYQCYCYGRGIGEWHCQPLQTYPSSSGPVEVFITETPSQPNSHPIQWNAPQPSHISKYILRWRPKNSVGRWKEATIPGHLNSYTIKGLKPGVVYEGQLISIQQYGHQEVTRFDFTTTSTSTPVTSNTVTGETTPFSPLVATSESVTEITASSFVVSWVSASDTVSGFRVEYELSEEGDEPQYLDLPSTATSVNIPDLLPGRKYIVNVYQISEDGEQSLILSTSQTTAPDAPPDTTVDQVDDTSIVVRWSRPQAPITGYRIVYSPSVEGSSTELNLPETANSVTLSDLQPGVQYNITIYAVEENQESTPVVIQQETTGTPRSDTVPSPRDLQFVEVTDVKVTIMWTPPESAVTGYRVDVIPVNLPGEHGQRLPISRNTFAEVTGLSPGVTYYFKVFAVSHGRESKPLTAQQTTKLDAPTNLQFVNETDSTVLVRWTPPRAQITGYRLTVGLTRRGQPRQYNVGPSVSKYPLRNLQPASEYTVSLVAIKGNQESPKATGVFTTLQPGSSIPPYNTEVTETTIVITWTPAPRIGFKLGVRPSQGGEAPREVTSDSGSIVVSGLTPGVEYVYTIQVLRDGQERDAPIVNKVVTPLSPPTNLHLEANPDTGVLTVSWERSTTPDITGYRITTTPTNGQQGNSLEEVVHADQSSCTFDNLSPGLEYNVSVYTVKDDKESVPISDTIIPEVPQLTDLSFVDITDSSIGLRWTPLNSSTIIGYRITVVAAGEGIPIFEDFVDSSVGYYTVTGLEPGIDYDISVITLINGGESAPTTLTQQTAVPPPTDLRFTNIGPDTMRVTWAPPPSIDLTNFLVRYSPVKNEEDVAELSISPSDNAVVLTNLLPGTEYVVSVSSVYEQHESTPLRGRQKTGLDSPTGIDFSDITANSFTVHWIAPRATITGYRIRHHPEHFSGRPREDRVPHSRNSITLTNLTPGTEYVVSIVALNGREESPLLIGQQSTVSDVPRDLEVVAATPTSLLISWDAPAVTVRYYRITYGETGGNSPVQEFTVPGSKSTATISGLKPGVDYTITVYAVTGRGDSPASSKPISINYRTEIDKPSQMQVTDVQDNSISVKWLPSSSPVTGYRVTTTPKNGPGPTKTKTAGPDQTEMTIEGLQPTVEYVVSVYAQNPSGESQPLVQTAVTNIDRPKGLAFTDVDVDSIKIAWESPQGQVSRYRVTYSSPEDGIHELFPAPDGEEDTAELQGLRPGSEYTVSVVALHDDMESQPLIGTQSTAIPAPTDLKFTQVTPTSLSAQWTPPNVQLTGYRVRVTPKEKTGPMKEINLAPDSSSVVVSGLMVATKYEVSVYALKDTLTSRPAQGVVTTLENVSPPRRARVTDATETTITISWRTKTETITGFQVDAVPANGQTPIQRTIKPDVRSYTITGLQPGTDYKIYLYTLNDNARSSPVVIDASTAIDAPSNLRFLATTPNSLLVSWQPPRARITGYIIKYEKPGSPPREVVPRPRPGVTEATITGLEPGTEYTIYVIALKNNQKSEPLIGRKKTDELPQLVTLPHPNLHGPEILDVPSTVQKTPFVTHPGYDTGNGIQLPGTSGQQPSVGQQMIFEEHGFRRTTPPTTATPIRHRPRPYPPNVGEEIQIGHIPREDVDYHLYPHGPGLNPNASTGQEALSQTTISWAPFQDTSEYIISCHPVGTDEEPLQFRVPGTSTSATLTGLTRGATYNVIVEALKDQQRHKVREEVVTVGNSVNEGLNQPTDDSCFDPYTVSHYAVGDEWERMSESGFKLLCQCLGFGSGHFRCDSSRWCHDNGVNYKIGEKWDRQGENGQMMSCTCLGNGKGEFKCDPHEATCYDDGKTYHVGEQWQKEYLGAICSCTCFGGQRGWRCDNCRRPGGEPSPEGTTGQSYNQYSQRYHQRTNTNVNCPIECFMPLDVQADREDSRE

| Binder | Kd [1] | Kd [2] | koff [2] | kon [2] |
| --- | --- | --- | --- | --- |
| B1 | 2140 nM |  |  |  |
| B2 | 520 nM |  |  |  |
| B3 |  | 800 nM | 0.09 s⁻¹ | 151000 M⁻¹ s⁻¹ |
| B4 | 3460 nM |  |  |  |
| B5 |  | 9210 nM | 0.13 s⁻¹ | 19900 M⁻¹ s⁻¹ |

From article PMC7255614, “Strain-specific joint invasion and colonization by Lyme disease spirochetes is promoted by outer surface protein C” (PLoS Pathogens, 2020)
